In US20220273713A1, “METHOD OF INHIBITING OR ACTIVATING GAMMA DELTA T CELLS” (The University of Melbourne, priority 2019, published 2022):

How the values were obtained:
BTN2A2 = target: T1, BTN2A2 (Homo sapiens, UniProt Q8WVV5); assay: Cross-reactivity of anti-BTN2A1 mAb to BTN2A2 (ELISA, transfected cells); type: binding
T1 sequence (Q8WVV5 33-265 limits assumed): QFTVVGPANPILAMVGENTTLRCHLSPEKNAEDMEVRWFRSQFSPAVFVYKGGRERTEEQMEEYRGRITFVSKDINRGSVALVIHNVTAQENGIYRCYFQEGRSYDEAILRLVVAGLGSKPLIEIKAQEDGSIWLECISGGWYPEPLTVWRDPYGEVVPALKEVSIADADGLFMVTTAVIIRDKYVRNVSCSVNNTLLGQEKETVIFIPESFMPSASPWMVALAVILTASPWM
Method: Purified recombinant proteins (0.2-20 μg/ml) were immobilized in microplate wells in PBS buffer overnight at 4° C. Non-specific binding was then blocked by incubation in PBS containing 0.05% tween 20 plus 5% skim milk powder or 0.5% (w/v) bovine serum albumin (BSA). The wells were then incubated for 60 minutes at room temperature in the presence of antibodies at 2-5 μg/mL in PBS/0.05% tween-20/2% skim milk powder or 0.5% BSA, followed by washing in PBS/0.05% tween-20. Plates were then incubated with HRP-labelled sheep anti-mouse IgG secondary antibody (Chemicon), or goat anti-mouse IgG secondary antibody (Millipore) followed by detection using 3,3′,5,5′-tetramethylbenzidine substrate (Sigma) and absorbance was measured at 450 nm using a plate reader.

PBMCs = assay: Luminex (PBMCs): cytokine/chemokine expression in freshly isolated PBMCs; type: cell-based, human
Method: Blood from a healthy donor (Red Cross Australia) was ficolled, PBMC layer collected, washed and 5×10^5 cells were treated with the indicated antibodies in duplicates @ 10 μg/ml in 500 ul TCRPMI supplemented with 100u/ml IL-2 and incubated at 37 degrees C. and 5% CO2 for 16 hrs. Supernatants were collected and submitted for Luminex Human 20-plex Inflammation panel analysis (EPX200-12185-901) to Crux Biolabs (Scoresby, VIC, Australia). This measures the following analytes: GM-CSF; ICAM-1, IFN-α; IFN-g, IL-1α, IL-1b, IL-10, IL-12p70, IL-13, IL-17A, IL-4, IL-8, IP-10, MCP-1, IL-6, MIP-1α, MIP-1b, sE-selectin, sP-Selectin, TNF-α. All samples were run with appropriate controls and standards. Treatment with antibody 259 was only performed in one well.

[1] = PBMCs from a healthy donor, antibodies 10 μg/ml, 16 hrs, duplicates, 259 one well

B1: antibody 259: agonistic anti-BTN2A1 antibody; VL SEQ ID NO: 156, VH SEQ ID NO: 160 (antibody, V domains shown)
VH: EVQLLESGGGLVQPGGSLRLSCAASGFTFSSYAMQWVRQAPGKGLEWVSRIGPSGGGTMYADSVKGRFTISRDNSKNTLYLQMNSLRAEDMAVYYCARDLGGLSVLFDYWGQGTLVTVSS
VL: QSELTQPPSASETPGQRVTISCSGSSSNIGSNTVSWFQQLPGSAPRLLIYNDHRRPSGVPDRFSGSKSGTSASLVISGLQSQDEADYYCSAWDDSLNGVVFGGGTKLTVL
modifications: amino acid sequence of the VH of antibody 259; amino acid sequence of the VL of antibody 259
BTN2A2
  cross-reactivity to BTN2A2: not cross-reactive
PBMCs; [1]
  ICAM-1: 1578.36 pg/mL
  IFNγ: 104.96 pg/mL
  IL-1α: 8.7 pg/mL
  IL-1β: 5.19 pg/mL
  IL-6: 462.59 pg/mL
  IL-8: 495.89 pg/mL
  IL-10: 49.99 pg/mL
  IL-17A: 24.59 pg/mL
  IP-10: 641.08 pg/mL
  MCP-1: 1023.7 pg/mL
  MIP-1α: 131.71 pg/mL
  MIP-1β: 584.34 pg/mL
  sE-selectin: 327.64 pg/mL
PBMCs; full PBMC
  TNFα levels: no increase
PBMCs; full PBMC, vs isotype
  IL-8 (CXCL8), CCL2 (MCP-1) and IL-6: up-regulated
  expression of IFNγ and sE-Selectin: increased expression
